In US20220362394A1 (SUTRO BIOPHARMA, published 2022):
Residue numbers refer to the chain shown, from its start.

B1: 2265-F02 (antibody, V domains shown)
VH: EVQLVESGGGLVQPGGSLRLSCAASGFNISAPGIHWVRQAPGKGLEWVGFINPAGGYTDYADSVKGRFTISADTSKNTAYLQMNSLRAEDTAVYYCARDYIRQYWTYVLDYWGQGTLVTVSS
VL: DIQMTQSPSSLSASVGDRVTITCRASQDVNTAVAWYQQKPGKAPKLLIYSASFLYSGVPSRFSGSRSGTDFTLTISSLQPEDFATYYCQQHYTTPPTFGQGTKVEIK
notes: also called Antibody 4; Antibody 2265-F02
B2: 2265-B06 (antibody, V domains shown)
VH: B1 VH with S30R, A31V, P32S, I101V, R102Q, Q103A
VL: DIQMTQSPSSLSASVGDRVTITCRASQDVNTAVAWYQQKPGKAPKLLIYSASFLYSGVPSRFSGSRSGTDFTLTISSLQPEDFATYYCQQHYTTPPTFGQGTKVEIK
notes: also called Antibody 5
B3: 2265-D11 (antibody, V domains shown)
VH: B1 VH with A31G, G55A, R102Y
VL: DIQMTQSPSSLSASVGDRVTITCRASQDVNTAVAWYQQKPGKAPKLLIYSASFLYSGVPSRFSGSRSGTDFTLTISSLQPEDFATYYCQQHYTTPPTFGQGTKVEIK
notes: also called Antibody 9
B4: 2265-E02 (antibody, V domains shown)
VH: B1 VH with S30Y, A31V, P32S, M83T, I101V, R102Y
VL: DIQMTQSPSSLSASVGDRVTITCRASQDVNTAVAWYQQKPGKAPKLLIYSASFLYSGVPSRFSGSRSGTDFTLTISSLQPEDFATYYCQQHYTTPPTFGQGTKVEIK
notes: also called Antibody 8
B5: 2265-C03 (antibody, V domains shown)
VH: B1 VH with S25P, A31V, I101V, R102P
VL: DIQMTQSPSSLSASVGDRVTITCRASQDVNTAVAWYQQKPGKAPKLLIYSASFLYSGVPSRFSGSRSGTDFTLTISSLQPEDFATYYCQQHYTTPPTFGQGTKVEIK
notes: also called Antibody 11
B6: 2265-A09 (antibody, V domains shown)
VH: B1 VH with S30I, A31G, I101V, R102Y, Q103N
VL: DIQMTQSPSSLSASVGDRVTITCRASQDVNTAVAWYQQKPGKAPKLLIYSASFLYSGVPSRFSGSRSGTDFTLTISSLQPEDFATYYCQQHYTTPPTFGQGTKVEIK
notes: also called Antibody 6
B7: 2265-F03 (antibody, V domains shown)
VH: B1 VH with S30R, A31G, N52S, G55A, Y100F, I101V, R102Q, Q103S
VL: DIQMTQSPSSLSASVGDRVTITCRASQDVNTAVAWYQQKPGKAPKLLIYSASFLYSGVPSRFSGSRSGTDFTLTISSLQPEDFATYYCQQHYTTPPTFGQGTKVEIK
notes: also called Antibody 7
B8: 2265-F05 (antibody, V domains shown)
VH: B1 VH with S30I, I101V, R102N, Q103A
VL: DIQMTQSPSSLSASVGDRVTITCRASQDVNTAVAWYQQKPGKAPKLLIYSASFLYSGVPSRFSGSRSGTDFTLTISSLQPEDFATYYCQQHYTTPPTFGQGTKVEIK
notes: also called Antibody 3
B9: 2265-D05 (antibody, V domains shown)
VH: B1 VH with A31G, G55A, T69A, Y100F, I101V, R102Y, Q103A
VL: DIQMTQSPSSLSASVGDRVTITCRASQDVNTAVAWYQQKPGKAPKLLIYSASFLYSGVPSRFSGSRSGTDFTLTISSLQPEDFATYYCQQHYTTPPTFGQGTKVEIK
notes: also called Antibody 10
B10: 2265-A06 (antibody, V domains shown)
VH: B1 VH with S30Y, A31R, P32S, I101V, R102P
VL: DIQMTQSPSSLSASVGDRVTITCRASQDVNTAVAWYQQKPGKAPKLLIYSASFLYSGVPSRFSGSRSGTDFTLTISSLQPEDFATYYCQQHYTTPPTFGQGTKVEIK
notes: also called Antibody 13
B11: 2265-C02 (antibody, V domains shown)
VH: B1 VH with S30G, A31V, P32S, D62G, R102Y, Q103S
VL: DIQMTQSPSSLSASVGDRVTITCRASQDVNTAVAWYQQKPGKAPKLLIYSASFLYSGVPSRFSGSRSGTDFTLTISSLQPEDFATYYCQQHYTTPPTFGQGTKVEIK
notes: also called Antibody 12
B12: 2265-F06 (antibody, V domains shown)
VH: B1 VH with A31Y, R102L
VL: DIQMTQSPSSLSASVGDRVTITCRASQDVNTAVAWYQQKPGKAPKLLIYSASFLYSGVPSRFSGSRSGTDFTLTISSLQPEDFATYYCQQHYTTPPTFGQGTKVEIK
notes: also called Antibody 2
B13: 2137-C07 (antibody, V domains shown)
VH: B1 VH with A31G, P32S, I101V, R102Y
VL: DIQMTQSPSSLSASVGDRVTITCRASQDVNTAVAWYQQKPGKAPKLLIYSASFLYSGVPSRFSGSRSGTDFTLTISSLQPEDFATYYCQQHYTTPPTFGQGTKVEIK
notes: IgG1 with His/FLAG tag, cell-free expressed, trastuzumab LC; also called Antibody 1
B14: 2213-A06 (antibody, V domains shown)
VH: EVQLVESGGGLVQPGGSLRLSCAASGFNISSYAIHWVRQAPGKGLEWVGVISPYGGYTEYADSVKGRFTISADTSKNTAYLQMNSLRAEDTAVYYCARDFYDRYSTYVLDYWGQGTLVTVSS
VL: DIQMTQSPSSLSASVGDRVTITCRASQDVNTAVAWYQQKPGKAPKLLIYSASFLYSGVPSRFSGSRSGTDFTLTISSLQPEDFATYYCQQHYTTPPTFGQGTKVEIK
notes: also called Antibody 23
B15: 2290-C07 (antibody, V domains shown)
VH: EVQLVESGGGLVQPGGSLRLSCAASGFNITYDWIHWVRQAPGKGLEWVGVITPFDGYTYYADSVKGHFTISADTSKNTAYLQMNSLRAEDTAVYYCARDMGVGYWVGFSDYWGQGTLVTVSS
VL: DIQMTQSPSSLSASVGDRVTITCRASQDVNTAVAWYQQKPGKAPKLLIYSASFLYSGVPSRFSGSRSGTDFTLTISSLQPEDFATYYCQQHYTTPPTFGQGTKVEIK
notes: also called Antibody 19
B16: 2290-G01 (antibody, V domains shown)
VH: B15 VH with T30S, Y31P, D32Y, F54P, D55S, Y57F, H67R, M83V, M100L
VL: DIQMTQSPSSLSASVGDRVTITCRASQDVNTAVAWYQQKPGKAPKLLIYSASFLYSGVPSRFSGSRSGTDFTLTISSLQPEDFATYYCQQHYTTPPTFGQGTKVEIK
notes: also called Antibody 17
B17: 9A8 (antibody, V domains shown)
VH: AVTLDESGGGLQTPGGTLSLVCKASGFTFSSFNMFWVRQAPGKGLEWVAYIRNDGNSASYGPAVKGRATISRDNGQSTVRLQLNNLRAEDTATYYCAKTTCIGSGGCIDTWGHGTEVIVSS
VL: ALTQPSSVSANPGETVKITCSGGSSDYGWFQQKSPGSAPVTVIYSNNQRPSGIPSRFSGSKSGSTGTLTITGVQAEDEAIYYCANVDYTDDVFGAGTTLTVL
notes: Chicken HybriFree-derived antibody; also called Antibody 30
B18: 10G5 (antibody, V domains shown)
VH: B17 VH with T17V, R52S, N56S, A58T, Y95F
VL: B17 VL with S24N, S25Y, F30Y, V42L, S45Y, Q48K, G52D, Y88S
notes: Chicken HybriFree-derived antibody; also called Antibody 31

What follows are binders tested against T1, cyno BCMA-Fc (cynomolgus monkey, UniProt Q02223 1-54 (human entry)) (assay: SPR Biacore, antibody captured, 25 C).
T1 construct: Custom protein production; also called cynomolgus BCMA-Fc; not shown: Fc part not described
Protocol: (§1) Anti-Fab or anti-Fc polyclonal antibodies were immobilized onto a CM5 chip (GE Life Sciences) using amine coupling chemistry (from Amine Coupling Kit, GE Life Sciences). The immobilization steps were carried out at a flow rate of 25 μL/min in 1×HBS-EP+ buffer (GE Life Sciences; 10× Stock diluted before use). The sensor surfaces were activated for 7 min with a mixture of NHS (0.05 M) and EDC (0.2 M). The anti-Fab or anti-Fc antibodies were injected over all 4 flow cells at a concentration of 25 μg/ml in 10 mM sodium acetate, pH 4.5, for 7 min. Ethanolamine (1 M, pH 8.5) was injected for 7 min to block any remaining activated groups.
(§2) Off-rate and kinetic binding experiments were performed at 25° C. using 1×HBS-EP+ buffer. […] After capturing ligand (antibody) on the anti-Fab or anti-Fc surface, the analyte (human BCMA-Fc, cyno BCMA-Fc, or human BCMA from R&D Systems, custom protein production, or Sigma Aldrich, respectively) was bound for 180 seconds, followed by a 600 second dissociation phase at a flow rate of 50 μL/min. Between each ligand capture and analyte binding cycle, regeneration was carried out using 2 injections of 10 mM glycine pH 2.0 for 30 seconds at 30 μL/min, followed by a 30 second buffer wash step.
(§3) The data was fit with the Biacore T200 Evaluation software, using a 1-1 Langmuir binding model. KD (affinity, nM) was determined as a ratio of the kinetic rate constants calculated from the fits of the association and dissociation phases.

Row | Binder | Kd | koff | kon
1 | B1 | 3.68 nM | 0.00116 s⁻¹ | 315000 M⁻¹ s⁻¹
2 | B2 | 3.67 nM | 0.0013 s⁻¹ | 354000 M⁻¹ s⁻¹
3 | B3 | 3.24 nM | 0.00116 s⁻¹ | 358000 M⁻¹ s⁻¹
4 | B4 | 5.75 nM | 0.00153 s⁻¹ | 266000 M⁻¹ s⁻¹
5 | B5 | 5.83 nM | 0.00177 s⁻¹ | 304000 M⁻¹ s⁻¹
6 | B6 | 6.43 nM | 0.00173 s⁻¹ | 270000 M⁻¹ s⁻¹
7 | B7 | 7.9 nM | 0.00274 s⁻¹ | 346000 M⁻¹ s⁻¹
8 | B8 | 4.39 nM | 0.00114 s⁻¹ | 260000 M⁻¹ s⁻¹
9 | B9 | 4.53 nM | 0.00147 s⁻¹ | 325000 M⁻¹ s⁻¹
10 | B10 | 6.24 nM | 0.00156 s⁻¹ | 249000 M⁻¹ s⁻¹
11 | B11 | 4.22 nM | 0.00137 s⁻¹ | 325000 M⁻¹ s⁻¹
12 | B12 | 3.84 nM | 0.00133 s⁻¹ | 347000 M⁻¹ s⁻¹

What follows are binders tested against T2, human BCMA-Fc (human, UniProt Q02223 1-54) (assay: SPR Biacore, antibody captured, 25 C).
T2 construct: Bought from R&D Systems; also called huBCMA-Fc; not shown: Fc part not described
T2 sequence: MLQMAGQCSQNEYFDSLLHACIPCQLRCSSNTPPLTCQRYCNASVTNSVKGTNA
Protocol: as §1, §2, §3

Row | Binder | Kd | koff | kon
13 | B13 | 1.63 nM | 0.000745 s⁻¹ | 457000 M⁻¹ s⁻¹
14 | B1 | 0.499 nM | 0.000293 s⁻¹ | 587000 M⁻¹ s⁻¹
15 | B2 | 0.546 nM | 0.000385 s⁻¹ | 705000 M⁻¹ s⁻¹
16 | B14 | 2.08 nM | 0.00283 s⁻¹ | 1.36e+06 M⁻¹ s⁻¹
17 | B3 | 0.701 nM | 0.000537 s⁻¹ | 766000 M⁻¹ s⁻¹
18 | B4 | 0.67 nM | 0.000383 s⁻¹ | 571000 M⁻¹ s⁻¹
19 | B5 | 0.724 nM | 0.000425 s⁻¹ | 587000 M⁻¹ s⁻¹
20 | B6 | 0.589 nM | 0.000318 s⁻¹ | 539000 M⁻¹ s⁻¹
21 | B7 | 0.633 nM | 0.000474 s⁻¹ | 749000 M⁻¹ s⁻¹
22 | B8 | 0.469 nM | 0.00024 s⁻¹ | 512000 M⁻¹ s⁻¹
23 | B9 | 0.702 nM | 0.000485 s⁻¹ | 691000 M⁻¹ s⁻¹
24 | B10 | 0.789 nM | 0.000392 s⁻¹ | 497000 M⁻¹ s⁻¹
25 | B11 | 0.758 nM | 0.000567 s⁻¹ | 747000 M⁻¹ s⁻¹
26 | B12 | 0.276 nM | 0.000193 s⁻¹ | 699000 M⁻¹ s⁻¹
27 | B15 | 0.612 nM | 0.000221 s⁻¹ | 361000 M⁻¹ s⁻¹
28 | B16 | 0.445 nM | 0.000318 s⁻¹ | 714000 M⁻¹ s⁻¹

What follows are binders tested against T1, cyno BCMA-Fc (assay: ELISA, coated cynoBCMA-Fc).

Row | Binder | Bmax | EC50
29 | B14 | 2.23e+06 | 39 nM
30 | B15 | 3.81e+06 | 0.2 nM
31 | B16 | 4.6e+06 | 0.3 nM

These binders were tested against T2, human BCMA-Fc (assay: ELISA, coated huBCMA-Fc).

Row | Binder | Bmax | EC50
32 | B14 | 3.68e+06 | 0.2 nM
33 | B15 | 4.12e+06 | 0.2 nM
34 | B16 | 4.83e+06 | 0.3 nM

Each binder was assayed against cynomolgus BCMA on cells (cynomolgus monkey, UniProt Q02223 1-184 (human entry)) (assay: FACS, 293T-cynoBCMA cells).
cynomolgus BCMA on cells, sequence (Q02223 other isoform, or with tags, fused parts or gaps): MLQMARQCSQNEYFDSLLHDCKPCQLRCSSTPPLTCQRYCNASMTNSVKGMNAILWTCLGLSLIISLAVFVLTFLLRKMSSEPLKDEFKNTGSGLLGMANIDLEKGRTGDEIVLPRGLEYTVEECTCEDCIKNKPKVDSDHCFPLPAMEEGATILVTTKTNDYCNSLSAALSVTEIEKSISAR
Protocol: (§4) Variants for which sufficient protein was purified in secondary screening were tested in a fluorescence-activated cell sorting (FACS) cell-binding assay. […] 6-12 point dilutions of anti-BCMA variants starting from concentrations of about 100-200 nM antibody were dispensed into each well using a BioMekFX (Beckman Coulter). Cells were then incubated on ice for 1 hr, washed with FACS buffer and incubated for 1 hr on ice with […] FACS buffer containing 2.5 μg/ml Alexa647-conjugated Goat Anti-Human IgG dispensed using BioMekFX (Beckman Coulter). Cells were then washed 2× with FACS buffer and fixed for 10 minutes in […] PBS with 2% paraformaldehyde (PFA) prior to fluorescence detection. Samples were acquired using a Beckton Dickinson LSRII FACS. Geometric Mean Fluorescence Intensity of BCMA antibody binding was analyzed using FlowJo® software (Tree Star, Inc.).

Row | Binder | Bmax | Kd
35 | B13 | 18500 MFI | 10.1 nM
36 | B1 | 23800 MFI | 6.2 nM
37 | B2 | 26700 MFI | 5.1 nM
38 | B14 | 3620 MFI | 15.1 nM
39 | B3 | 21300 MFI | 3.8 nM
40 | B4 | 21800 MFI | 5 nM
41 | B6 | 18500 MFI | 3 nM
42 | B7 | 17400 MFI | 2.5 nM
43 | B8 | 26600 MFI | 3.4 nM
44 | B9 | 21900 MFI | 2.5 nM
45 | B10 | 22100 MFI | 3.8 nM
46 | B11 | 24100 MFI | 4.9 nM
47 | B12 | 25800 MFI | 3.4 nM
48 | B15 | 78100 MFI | 6.7 nM
49 | B16 | 77100 MFI | 4.7 nM
50 | B17 | 17800 MFI | 8.87 nM
51 | B18 | 24400 MFI | 7.33 nM

The binders below were run against T3, human BCMA on cells (human, UniProt Q02223 1-184) (assay: FACS, NCI-H929 cells).
T3 construct: also called hBCMA; BCMA on NCI-H929, ARP-1, OPM-2, U266B1, MM.1S, RPMI-8226 cells
T3 sequence: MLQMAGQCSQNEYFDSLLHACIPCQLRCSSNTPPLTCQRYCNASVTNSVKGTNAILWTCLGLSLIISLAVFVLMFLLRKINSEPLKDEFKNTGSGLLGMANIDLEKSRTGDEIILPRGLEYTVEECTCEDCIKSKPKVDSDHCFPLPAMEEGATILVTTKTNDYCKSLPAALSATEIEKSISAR
Protocol: as §4

Row | Binder | Bmax | Kd
52 | B1 | 11700 MFI | 5.2 nM
53 | B2 | 11600 MFI | 4.5 nM
54 | B14 | 2510 MFI | 5.3 nM
55 | B3 | 10900 MFI | 4 nM
56 | B4 | 12200 MFI | 4.5 nM
57 | B5 | 12500 MFI | 5.3 nM
58 | B6 | 12700 MFI | 10.3 nM
59 | B7 | 11200 MFI | 4.3 nM
60 | B8 | 11900 MFI | 6.2 nM
61 | B9 | 9620 MFI | 4.4 nM
62 | B10 | 11100 MFI | 5.7 nM
63 | B11 | 11500 MFI | 4.4 nM
64 | B12 | 11400 MFI | 4.5 nM
65 | B17 | 21100 MFI | 33 nM
66 | B18 | 25800 MFI | 65.8 nM
